Consider two substances from PMC10939263.

One experiment addresses C1-fused SRC kinases. Briefly: split reporter (BiFC, NanoBiT); Gaussia princeps luciferase complementation assay in human HEK293T cells; Gluc2 at the N terminus of SKAP1 or SKAP2 (N2), Gluc1 at the N terminus (N1) or C terminus (C1) of the SRC kinase; 100 ng plasmid pair, PEI; luminescence read in lysate one day later; normalized luminescence ratio (NLR), given relative to wild type or to SKAP2.

Another experiment addresses FRK, C1-fused (UniProt P42685). Briefly: luciferase complementation assay (normalized luciferase ratio, NLR). The conditions noted are these: HEK293T cells; one experiment; read off a plot.
The target in experiment [1] is FYN (isoform without exon 7), C1-fused, P06241-3. Described as above. The conditions noted are these: HEK293T cells; one experiment; read off a plot.
In another experiment the target is LYN, C1-fused (UniProt P07948). Described as above. The conditions noted are these: HEK293T cells; one experiment; read off a plot.
The target of a further experiment is LCK wild type, C1-fused (UniProt P06239). The experiment is described as above. The conditions noted are these: HEK293T cells; one experiment; read off a plot.
Another experiment has as its target BLK, C1-fused (UniProt P51451). The experiment is described as above. The conditions noted are these: HEK293T cells; one experiment; read off a plot.
For a further experiment, the target named is BLK, N1-fused (UniProt P51451). The description is as above. The conditions noted are these: HEK293T cells; one experiment; read off a plot.
For another experiment, the target named is FGR, C1-fused (UniProt P09769). Described as above. The conditions noted are these: HEK293T cells; one experiment; read off a plot.
Experiment [2] deals with FYN (isoform without exon 7), N1-fused, P06241-3. Described as above. The conditions noted are these: HEK293T cells; one experiment; read off a plot.
The target in experiment [3] is HCK wild type, C1-fused, P08631-2. The experiment is described as above. The conditions noted are these: HEK293T cells; one experiment; read off a plot.
For the next experiment, the target named is LYN, N1-fused (UniProt P07948). The experiment is described as above. The conditions noted are these: HEK293T cells; one experiment; read off a plot.

Consider “SRC kinase associated phosphoprotein 1 (SKAP1), wild type, N2-fused (from UniProt Q86WV1 1-359) (natural protein)”, for which, in the experiment with C1-fused SRC kinases, the SKAP2 normalized NLR, mean over C1-fused SRC kinases (against wild type SKAP2) stood at 0.39.
Consider “SRC kinase associated phosphoprotein 1 (SKAP1), wild type, N2-fused (from UniProt Q86WV1) DIM-”, for which the ratio to parent was 0.64 with FRK, C1-fused; 0.78 in experiment [1]; 1.2 in the experiment with LYN, C1-fused; 0.68 with LCK wild type, C1-fused; 0.9 with BLK, C1-fused; 0.7 in the experiment with BLK, N1-fused. The ratio to parent in the experiment with FGR, C1-fused was 1.3; in experiment [2], 0.66; in experiment [3], 1.3; with LYN, N1-fused, 0.93.
